Reference: article PMC7601681, “Human Serum Albumin Binds Native Insulin and Aggregable Insulin Fragments and Inhibits Their Aggregation” (Biomolecules, 2020)

Experiments:
albumins = conditions: cited from earlier work
Text: Pyrene and its derivatives are very popular fluorescent markers used to study interactions with HSA [49, 50, 51, 52]. Despite the fact that there is differentiated localization of pyrene derivatives in HSA, these systems are commonly applied as fluorescent probes, due to the high sensitivity of their fine vibronic structure to changes in the environment (the Ham effect) and long fluorescence lifetimes. […] A similar trend was also observed for the complex of ...

HSA [1] = target: T1, HSA (Homo sapiens, UniProt P02768); conditions: probe trapped inside HSA; cited from earlier work
T1 construct: purchased Sigma-Aldrich
Text: The calculated value also confirmed existence of interactions between 2 and HSA with pyrene fragment presented on less polar environment inside protein. […] The binding constants 1.5 ± 0.3 × 10^6 dm^3 ...

[2] = Thioflavin T (ThT) fluorescence aggregation assay; type: physicochemical; conditions: peptide 0.33 mM with HSA 0.33 mM, phosphate buffer pH 6.0, 7 days at 37.2 °C, then ThT for 3 days, λexc 440 nm, 470–600 nm
Method: Insulin, peptides 5 and 6, and HSA (final concentration 0.66 mM), as well as each sample of the mixture of insulin, peptides 5 and 6) (0.33 mM) with HSA (0.33 mM) were incubated in phosphate buffer solution, pH 6.0 (2 mL), for 7 days at a temperature of 37.2 °C. Then, 2 mL of a solution of Thioflavin T ([…] in phosphate buffer, pH 6.0) was added to the samples. Incubation continued for another 3 days. During this time, spectroscopic measurements of all samples were performed in the range of 470–600 nm, excitation wavelength 440 nm. The intensity of fluorescence spectra recorded on the first, second, and third days of incubation for all samples. are shown in the Supplementary Material (Figures S3 and S4).
The fluorescence intensity measurements were carried out using a FLUOROMAX-4 system from Horiba Scientific (Edison, NJ, USA), measurement range of 470–600 nm, excitation wavelength 440 nm.

[3] = Light microscopy of Congo Red stained aggregates; type: physicochemical; conditions: CR staining 3 days; for microscopic examination of CR-stained aggregates, in the presence of HSA: peptide 1.44 mM, HSA 0.30 mM, phosphate buffer 0.1 M pH 7.2, 7 days at 37.4 °C; for microscopic examination of CR-stained aggregates, without HSA: phosphate buffer 0.1 M pH 7.2, 7 days at 37 °C
Method: Microscopic studies were carried out for samples prepared in phosphate buffer (0.1 M, pH 7.2) incubated for 7 days at 37.4 °C. To 2 mL of H-LYQLENY-OH (5) and H-VEALYL-OH (6) (c = 2.88 mM) solution was added 2 mL of HSA solution (c = 0.60 mM). The final concentration of incubated peptides was equal to c = 1.44 mM, whereas, for plasma protein, it was 0.30 mM. Incubation was also performed for 4 mL of an HSA sample (c = 0.3 mM). After that period, 4 mL of CR solution (c = 45 μM in phosphate buffer, pH 7.2) was added to the all samples, which were incubated for another 3 days at room temperature.
The microscopic assays were performed for samples stained with Congo Red dye. The samples were transferred on a microscopic slide and visualized using a Delta Optical Genetic Pro (Warsaw, Poland) light microscope.

[4] = Circular dichroism (CD) after incubation with HSA; type: physicochemical; conditions: 0.1 mg/mL, phosphate buffer pH 7.2, measured after 30 min, two and four days of incubation at 37 °C, 190–270 nm
Method: Samples were prepared by dissolving 1 mg of the analyzed peptide in phosphate buffer pH 7.2 (10 mL), to a final concentration of 0.1 mg/mL All measurements were carried out at room temperature using a quartz cuvette (1 mm path length, Hellma). The experimental settings were as follows: measurements range, 190–270 nm; data pitch, 5 nm; scanning mode, continuous; scanning speed, 100 nm/min; bandwidth, 3 nm; integration time, 1 s.
The CD spectra were recorded using a Jasco J-1500 instrument (Jasco, Cracow, Poland) and quartz cuvettes with 1 mm optical path lengths. The measurements were acquired in the range of 190–270 nm at ambient temperature by taking points every 5 nm, with a scan rate of 100 nm per min, an integration time of 1 s, and a bandwidth of 4 nm. The samples were prepared in phosphate buffer (0.1 M, pH 7.2) with a final concentration of 0.1 mg/mL.
Circular dichroism (CD) spectroscopy can be a very valuable source of information about differences in the secondary structure of peptides and proteins. It has been shown that all α-helical proteins show a strong minimum at 222 nm and 208–210 nm and a strong maximum at 191–193 nm. In the case of β-sheet protein, a single negative band may be observed in the 210–225 nm wavelength range and a strong positive band in the 190–200 nm wavelength range, although their intensities are noticeably lower than those for α-proteins. The CD spectra recorded for buffered solutions of insulin (4) and hot-spot fragments (5), (6) in the presence of HSA as well as for native insulin are presented in Figure 9a,b. The measurements were performed after 30 min (sample 0), and then after two and four days of incubation at 37 °C.

[5] = Congo Red (CR) UV-Vis aggregation assay; type: physicochemical; conditions: peptide 1.44 mM with HSA 1.44 mM, phosphate buffer pH 7.2, 7 days at 37.2 °C, then CR 45 μM for 3 days, UV-Vis 400–800 nm
Method: Insulin, peptides 5 and 6, and HSA (final concentration 2.88 mM), as well as each sample of the mixture of insulin, peptides 5 and 6) (1.44 mM) with HSA (1.44 mM), were incubated in phosphate buffer solution at pH 7.2 (1 mL) for 7 days at a temperature of 37.2 °C. Then, 1 mL of a solution of Congo Red dye (45 μM in phosphate buffer, pH 7.2) was added to each incubated sample. Incubation continued for another 3 days. During this time, spectroscopic measurements of all the samples were performed in the range of 400–800 nm. The UV-Vis spectra recorded on the first, second, and third days of incubation for all samples are shown in the Supplementary Material (Figures S1 and S2).
The UV-Vis measurements were carried out using a Hitachi spectrophotometer (Hitachi, Tokyo, Japan).

[6] = Absorption spectra of the filtered HSA/Py-Ins complex on storage; type: physicochemical; conditions: [Py-Ins] 16.38 μM, [HSA] 30 μM, filtered through 0.2 µm syringe filter, spectra after 2, 4 and 6 days
Method: Broad absorption bands can indicate the presence of Py-Ins aggregates. Therefore, a solution of Py-Ins (1) complex with HSA was filtered through a 0.2 µm syringe filter in order to remove any Py-Ins aggregates, and the stability of the complex was tested for a further 6 days. […] This may indicate that the Py-Ins (1) conjugate was completely bound to the HSA, and that the protein has a protective role in the aggregation process. Additional confirmation of this was provided by the observed linear increase in Py-Ins absorbance for the samples diluted with 30 µM HSA solution (Figure 2, panel IIb).

[7] = Time-resolved fluorescence decay of the pyrene label in buffer or TX-100 (no protein); type: physicochemical; conditions: [Py-Ins] 16.38 μM, λexc 337 nm, λem 405 nm; for <τ> average fluorescence lifetime: Equation (2); for A1 (amplitude of fast component, aggregate fraction) / A2 (amplitude of slow component, monomer) / τ1 (fast component, aggregate form) / τ2 (slow component, monomer form): bi-exponential fit
HSA [8] = target: T1, HSA; assay: Time-resolved fluorescence decay of the pyrene label in the presence of HSA; type: binding; conditions: for <τ> average fluorescence lifetime / A1 (amplitude of fast component, aggregate fraction) / A2 (amplitude of slow component, monomer) / τ1 (fast component, aggregate form) / τ2 (slow component, monomer form): 30 μM HSA in PBS, [Py-Ins] 16.38 μM, λexc 337 nm, λem 405 nm; for <τ> average fluorescence lifetime: Equation (2); for A1 (amplitude of fast component, aggregate fraction) / A2 (amplitude of slow component, monomer) / τ1 (fast component, aggregate form) / τ2 (slow component, monomer form): bi-exponential fit
Method: The solutions of HSA (concentration = 3 10^−5 M) were prepared by dissolving the protein in 0.01 M of phosphate buffer saline (PBS, [NaCl] = 150 mM), pH = 7.2. […] The prepared samples were used within 24 h. […] In order to ensure complete protein hydration, the solutions were stored at room temperature for at least 1 h before measurements. The samples for fluorescence measurements were saturated with argon or deaerated with a vacuum pump.
Time-resolved measurements of HSA fluorescence were performed using a flash photolysis system based on a GL-3300 nitrogen laser (Photon Technology International, Birmingham, NJ, USA) providing single light pulses with a wavelength of 337.1 nm, duration ~800 ps, and average energy 100 µJ. The detection system consisted of a Baush&Lomb monochromator (Rochester, NY, USA), Hamamatsu 1P28 photomultiplier, and a PS325 power supply system (Stanford Research, Sunnyvale, CA, USA). […] All experiments were carried out at room temperature (25 ± 1 °C) using quartz cells with an optical length of 1 cm.

O=C(O)CCCc1ccc2ccc3cccc4ccc1c2c34 [PBA, 4-(1-pyrene)butyric acid]
affinity for albumin (albumins): weak affinity

O=S(=O)(O)c1ccc2ccc3cccc4ccc1c2c34 [PSA, 1-pyrene sulfonic acid]
binding constant, non-specific binding (HSA [1]): 3.8 × 10^5 dm^3 mol^−1
binding constant, specific receptor site (HSA [1]): 6.5 × 10^6 dm^3 mol^−1

c1cc2ccc3cccc4ccc(c1)c2c34 [Pyrene]
binding constant with albumins (albumins; nonspecific binding, order of magnitude): ~10^4 dm^3 mol^−1

H-LYQLENY-OH [LYQLENY, H-LYQLENY-OH]
Thioflavin T assay of HSA complexes: fluorescence intensity [2]: no increase in fluorescence intensity
microscopic examination of CR-stained aggregates, in the presence of HSA [3]: significantly less content of fibers characteristic for amyloid deposits
microscopic examination of CR-stained aggregates, without HSA [3]: typical amyloid fibers
secondary structure / amyloid formation in the presence of HSA by CD [4]: increase in the amount of the α-helix structure
Congo Red assay of HSA complexes: absorbance change [5]: no decrease in absorbance typical for amyloid structures

H-VEALYL-OH [VEALYL, H-VEALYL-OH]
Thioflavin T assay of HSA complexes: fluorescence intensity [2]: no increase in fluorescence intensity
microscopic examination of CR-stained aggregates, in the presence of HSA [3]: significantly less content of fibers characteristic for amyloid deposits
microscopic examination of CR-stained aggregates, without HSA [3]: typical amyloid fibers
secondary structure / amyloid formation in the presence of HSA by CD [4]: prevents the formation of amyloid fibrils
Congo Red assay of HSA complexes: absorbance change [5]: no decrease in absorbance typical for amyloid structures

Py-Ins: derivative of human insulin labeled with 4-(1-pyrene)butyric acid
stability of the HSA complex / aggregation: changes of absorption spectra on storage [6]: no changes were observed
<τ> average fluorescence lifetime ([7]; 20 mM TX-100, filtered): 161.2 ns
A1 (amplitude of fast component, aggregate fraction) ([7]; 20 mM TX-100, filtered): 0.1
A2 (amplitude of slow component, monomer) ([7]; 20 mM TX-100, filtered): 0.9
τ1 (fast component, aggregate form) ([7]; 20 mM TX-100, filtered): 18.2 ns
τ2 (slow component, monomer form) ([7]; 20 mM TX-100, filtered): 162.0 ns
<τ> average fluorescence lifetime ([7]; 20 mM TX-100, non-filtered): 147.9 ns
A1 (amplitude of fast component, aggregate fraction) ([7]; 20 mM TX-100, non-filtered): 0.2
A2 (amplitude of slow component, monomer) ([7]; 20 mM TX-100, non-filtered): 0.8
τ2 (slow component, monomer form) ([7]; 20 mM TX-100, non-filtered): 152.7 ns
A1 (amplitude of fast component, aggregate fraction) ([7]; PBS buffer, filtered): 0.2
A2 (amplitude of slow component, monomer) ([7]; PBS buffer, filtered): 0.8
τ1 (fast component, aggregate form) ([7]; PBS buffer, filtered): 20.1 ns
τ2 (slow component, monomer form) ([7]; PBS buffer, filtered): 98.8 ns
<τ> average fluorescence lifetime ([7]; PBS buffer, non-filtered): 86.6 ns
A1 (amplitude of fast component, aggregate fraction) ([7]; PBS buffer, non-filtered): 0.5
A2 (amplitude of slow component, monomer) ([7]; PBS buffer, non-filtered): 0.5
τ2 (slow component, monomer form) ([7]; PBS buffer, non-filtered): 98.4 ns
<τ> average fluorescence lifetime (HSA [8]; filtered): 145.6 ns
A1 (amplitude of fast component, aggregate fraction) (HSA [8]; filtered): 0.2
A2 (amplitude of slow component, monomer) (HSA [8]; filtered): 0.8
τ1 (fast component, aggregate form) (HSA [8]; filtered): 19.4 ns
τ2 (slow component, monomer form) (HSA [8]; filtered): 150.4 ns
<τ> average fluorescence lifetime (HSA [8]; non-filtered): 133.6 ns
A1 (amplitude of fast component, aggregate fraction) (HSA [8]; non-filtered): 0.4
A2 (amplitude of slow component, monomer) (HSA [8]; non-filtered): 0.6
τ1 (fast component, aggregate form) (HSA [8]; non-filtered): 19.1 ns
τ2 (slow component, monomer form) (HSA [8]; non-filtered): 143.8 ns
aggregate fraction (HSA [8]; diluted Py-Ins/HSA solutions, [Py-Ins]/[HSA] = 0.11, data not shown): about 20%

insulin: native human recombinant insulin (Sigma-Aldrich)
Thioflavin T assay of HSA complexes: fluorescence intensity [2]: no increase in fluorescence intensity
secondary structure / amyloid formation in the presence of HSA by CD [4]: does not tend to form amyloid fibrils
Congo Red assay of HSA complexes: absorbance change [5]: no decrease in absorbance typical for amyloid structures
